# Source: patent US20250277029A1 (Amgen, published 2025)
# B1: LIBC524049-1 (antibody, V domains shown)
# VH: QVQLQESGPGLVKPSQTLSLTCTVSGGSIRRGGDYWSWIRQHPGKGLEWIGHIYYTGSTAYNPSLKSRATISVNTYKNQFSLKLSSVTAADTAVYYCARDYDILTGYSYYYYGMDVWGQGTTVTVSS
# VL: not shown
# notes: Expressed as IgG1 SEFL2 mAb
# B2: LIBC527919-1 (antibody, V domains shown)
# VH: QVQLQESGPGLVKPSQTLSLTCTVSGGSIRRGGDYWAWIRQHPGKGLEWIGHVYQTGSTAYNPNFKDRATISVNTYKNQFSLKLSSVTAADTAVYYCARNYDALSGYSYYYYGMDVWGQGTTVTVSS
# VL: DIQLTQSPSSLSASVGDRVTITCRASQSIISYLNWYQQKPGKAPKLLIYAASSLRSGVPSRFSGSGSGTDFTLTISSLQPEDFATYYCQQYSNYPLTFGGGTRVEIKR
# notes: Expressed as IgG1 SEFL2 mAb
# B3: LIBC529593-1 (antibody, V domains shown)
# VH: QVQLQESGPGLVKPSQTLSLTCTVSGGSIRRGGDYWSWIRQHPGKGLEWIGHIYYSGSTNYNPSLRSRVRISVDTSKNQFSLKLSSVTAADTAVYYCARDYDILTGYSYYYYGLDVWGQGTTVTVSS
# VL: not shown
# B4: LIBC527997-1 (antibody, V domains shown)
# VH: QVQLQESGPGLVKPSQTLSLTCTVSGGSIRRGGDYWAWIRQHPGKGLEWIGHIYQTGSTNYNPRFKGRATISVNTYKNQFSLKLSSVTAADTAVYYCARNYDTLTGYSYYYYGMDVWGQGTTVTVSS
# VL: DIQMTQSPSSLSASVGDRVTITCRASQSISNYLNWYQQKPGKAPKLLIYAASSLHSGVPSRFSGSGSGTDFTLTISSLQPEDFASYYCQQYQSYPLTFGQGTKVEIKR
# notes: Expressed as IgG1 SEFL2 mAb
# B5: LIBC529593-1 (antibody, V domains shown)
# VH: QVQLQESGPGLVKPSQTLSLTCTVSGGSIRRGGDYWSWIRQHPGKGLEWIGHIYYSGSTNYNPSLRSRVRISVDTSKNQFSLKLSSVTAADTAVYYCARDYDILTGYSYYYYGLDVWGQGTTVTVSS
# VL: not shown
# notes: Fully human antibody from the new XenoMouse campaign
# B6: LIBC524049-1 (antibody, IgG1, V domains shown)
# VH: QVQLQESGPGLVKPSQTLSLTCTVSGGSIRRGGDYWSWIRQHPGKGLEWIGHIYYTGSTAYNPSLKSRATISVNTYKNQFSLKLSSVTAADTAVYYCARDYDILTGYSYYYYGMDVWGQGTTVTVSS
# VL: not shown
# B7: LIBC523969-1 (antibody, V domains shown)
# VH: QVQLQESGPGLVKPSQTLSLTCTVSGGSIRRGGDYWSWIRQHPGKGLEWIGHIYQTGQTKYNPNLKGRATISVNTYKNQFSLKLSSVTAADTAVYYCARDYDILTGYSYYYYGMDVWGQGTTVTVSS
# VL: DIVMTQSPLSLPVTPGEPASISCRSSQSLLSSTGANYLDWYLQKPGQSPQLLIYQGSNRASGVPDRFSGSGSGTDFTLKISRVEAEDVGVYYCRQAVGLPRTFGQGTKVEIKR
# B8: 10D10 (antibody, V domains shown)
# VH: QVQLQESGPGLVKPSQTLSLTCTVSGGSIRRGGDYWSWIRQHPGKGLEWIGYIYYSGSTNYNPSLKSRATISVDTSKNQFSLKLSSVTAADTAVYYCARDYDILTGYSYYYYGMDVWGQGTTVTVSS
# VL: not shown
# notes: also called 10D10 antibody; 10D10 parent
# B9: LIBC560340-1 (antibody, V domains shown)
# VH: QVQLQESGPGLVKPSQTLSLICIVSGGSIRRGGDYWNWIRQHPGKGLEWIGHIYYSGSKNYNPSLKSRVTISVDTSKNQFSLKLSSVTAADTAVYYCARGYDSSGYSYYYYGMDVWGQGTTVTVSS
# VL: DIVMTQSPLSLPVTPGEPASISCRSSQSLLYSNGHNFLDWYLQKPGQSPQLLIYLGSNRASGVPDRFSGSGSGTDFTLKISRVEAEDVGVYYCMQALQTPRTFGGGTKVEIKR
# notes: as for B5
# B10: LIBC560657-1 (antibody, V domains shown)
# VH: QVQLRESGPGLVKPSQTLSLICIVSGGSIRRGGDYWNWIRQHPGKGLEWIGHIYYTGTKYYNPSLKSRVTISVDTSKNQFSLKLSSVTAADTAVYYCARGYDSSGYSYYYYGMDVWGQGTTVTVSS
# VL: DIVMTQSPLSLPVTPGEPASISCRSSQSLLYSNGHNYLDWYLQKPGQSPQLLIYLGSNRAPGVPDRFSGSGSGTDFTLKISRVEAEDVGVYFCMQALQTPRTFGGGTKVEIKR
# notes: as for B5
# Assays:
# [1] = target: T1, human cannabinoid receptor 1 (huCB1), full length, expressed on cells (human, UniProt P21554 1-472); assay: cell-based or functional assay
# T1 sequence (P21554 whole entry): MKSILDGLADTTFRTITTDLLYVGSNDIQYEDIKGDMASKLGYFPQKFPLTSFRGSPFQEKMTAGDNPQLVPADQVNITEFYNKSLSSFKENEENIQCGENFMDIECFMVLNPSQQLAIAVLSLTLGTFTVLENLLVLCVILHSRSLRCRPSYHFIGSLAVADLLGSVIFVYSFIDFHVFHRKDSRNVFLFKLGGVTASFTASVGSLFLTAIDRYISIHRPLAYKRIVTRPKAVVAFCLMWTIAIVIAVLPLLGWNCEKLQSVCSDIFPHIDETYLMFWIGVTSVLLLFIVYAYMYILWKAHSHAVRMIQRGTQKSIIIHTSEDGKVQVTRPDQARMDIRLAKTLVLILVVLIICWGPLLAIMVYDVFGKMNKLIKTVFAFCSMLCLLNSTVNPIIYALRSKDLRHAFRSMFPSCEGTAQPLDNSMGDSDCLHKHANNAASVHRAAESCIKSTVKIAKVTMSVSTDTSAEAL
# [2] = target: T1, human cannabinoid receptor 1 (huCB1), …; assay: cell-based or functional assay; remark: listed apart in the source
# [3] = target: T1, human cannabinoid receptor 1 (huCB1), …; assay: cell-based or functional assay; remark: listed apart in the source
# huCB1 nanodisc (CB1-ND) = target: T2, huCB1 nanodisc (CB1-ND) (human, UniProt P21554 99-414); assay: Octet BLI; antibody captured by anti-human Fc, CB1-nanodisc in solution, 1:1 model
# T2 construct: The His-tagged CB1 is embedded in a POPC lipid nanodisc with MSP1D1 scaffold protein (molar ratio 480:8:1); also called huCB1-ND; #CB1-008
# T2 sequence (P21554 99-414 limits assumed): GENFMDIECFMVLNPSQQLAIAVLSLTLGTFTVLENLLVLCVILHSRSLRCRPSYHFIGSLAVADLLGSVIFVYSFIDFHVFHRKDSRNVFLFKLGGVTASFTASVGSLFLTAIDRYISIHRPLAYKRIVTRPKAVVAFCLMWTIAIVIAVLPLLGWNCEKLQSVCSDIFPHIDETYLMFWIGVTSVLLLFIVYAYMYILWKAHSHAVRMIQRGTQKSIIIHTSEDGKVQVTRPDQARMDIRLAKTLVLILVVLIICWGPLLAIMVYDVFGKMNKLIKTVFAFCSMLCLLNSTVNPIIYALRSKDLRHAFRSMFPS
# [4] = target: T1, human cannabinoid receptor 1 (huCB1), …; assay: KinExA on-cell ranking, HEK 293T cells expressing full length CB1; %IFF of LIBC523661 divided by %IFF of antibody
# [5] = target: T3, human cannabinoid receptor type 2 (CB2) (human, UniProt P34972 1-360); assay: FACS on transfected HEK293T cells
# T3 construct: also called huCB2; full length hu CB2
# T3 sequence (P34972 whole entry): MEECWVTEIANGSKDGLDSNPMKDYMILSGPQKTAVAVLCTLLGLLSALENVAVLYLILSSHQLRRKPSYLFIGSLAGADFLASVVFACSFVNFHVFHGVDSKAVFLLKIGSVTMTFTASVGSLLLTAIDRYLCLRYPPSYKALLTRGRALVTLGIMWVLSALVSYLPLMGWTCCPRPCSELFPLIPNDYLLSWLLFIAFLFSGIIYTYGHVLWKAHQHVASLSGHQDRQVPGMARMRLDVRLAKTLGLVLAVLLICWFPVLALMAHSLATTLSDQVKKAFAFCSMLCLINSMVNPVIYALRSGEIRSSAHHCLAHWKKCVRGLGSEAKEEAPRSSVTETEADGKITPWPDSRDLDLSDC
# mouse CB1 [6] = target: T4, mouse CB1 (mouse, UniProt P47746 1-473); assay: FACS on transfected HEK293T cells
# T4 construct: also called muCB1; murine CB1
# T4 sequence (P47746 whole entry): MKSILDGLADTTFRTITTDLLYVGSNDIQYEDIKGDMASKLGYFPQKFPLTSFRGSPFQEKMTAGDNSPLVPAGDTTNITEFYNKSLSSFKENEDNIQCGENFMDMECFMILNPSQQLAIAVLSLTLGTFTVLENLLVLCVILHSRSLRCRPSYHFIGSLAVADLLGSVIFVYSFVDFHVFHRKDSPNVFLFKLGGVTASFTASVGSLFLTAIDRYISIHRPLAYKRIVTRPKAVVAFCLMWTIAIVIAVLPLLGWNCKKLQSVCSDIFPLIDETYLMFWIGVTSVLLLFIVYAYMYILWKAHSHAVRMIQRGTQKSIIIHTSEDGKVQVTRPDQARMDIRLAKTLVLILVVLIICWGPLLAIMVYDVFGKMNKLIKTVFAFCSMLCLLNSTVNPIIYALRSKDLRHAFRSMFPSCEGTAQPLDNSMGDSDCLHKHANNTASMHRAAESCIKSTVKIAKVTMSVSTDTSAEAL
# [7] = target: T1, human cannabinoid receptor 1 (huCB1), …; assay: cell-based or functional assay; remark: listed apart in the source
# [8] = target: T1, human cannabinoid receptor 1 (huCB1), …; assay: FACS on transiently transfected HEK293T cells
# [9] = target: T5, truncated human CB1 (devoid of the 1-98 aa N-term), expressed on cells (human, UniProt P21554 99-472); assay: FACS on transiently transfected HEK293T cells
# T5 construct: Transiently expressed on HEK293T cells; also called Truncated hu CB1; N-term truncated human CB1
# T5 sequence (P21554 99-472): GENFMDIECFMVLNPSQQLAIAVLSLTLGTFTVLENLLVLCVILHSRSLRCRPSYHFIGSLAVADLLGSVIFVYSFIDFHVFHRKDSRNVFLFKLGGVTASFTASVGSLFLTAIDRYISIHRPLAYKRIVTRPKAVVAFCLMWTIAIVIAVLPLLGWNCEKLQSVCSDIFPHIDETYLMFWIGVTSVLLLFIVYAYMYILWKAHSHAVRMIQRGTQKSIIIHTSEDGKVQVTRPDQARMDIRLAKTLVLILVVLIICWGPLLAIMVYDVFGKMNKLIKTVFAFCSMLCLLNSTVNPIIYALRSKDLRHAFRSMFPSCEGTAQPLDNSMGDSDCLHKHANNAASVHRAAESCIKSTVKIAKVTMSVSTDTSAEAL
# [10] = target: T6, human cannabinoid receptor type 2 (CB2), full length, expressed on cells (human, UniProt P34972 1-360); assay: FACS on transiently transfected HEK293T cells
# T6 construct: Transiently expressed on HEK293T cells; also called Full length hu CB2; huCB2
# T6 sequence (P34972 whole entry): as the sequence (P34972 whole entry) above
# [11] = target: T7, mouse CB1, full length, expressed on cells (mouse, UniProt P47746 1-473); assay: FACS on transiently transfected HEK293T cells
# T7 construct: Transiently expressed on HEK293T cells; also called Full length mu CB1; muCB1
# T7 sequence (P47746 whole entry): as the sequence (P47746 whole entry) above
# [12] = target: T3, human cannabinoid receptor type 2 (CB2); assay: fold over mock (Table 14)
# mouse CB1 [13] = target: T4, mouse CB1; assay: fold over mock (Table 14)
# [14] = target: T8, GFP-fused huCB1-SMALP (human CB1 in styrene maleic acid lipoparticles) (human, UniProt P21554 1-472); assay: flow cytometry, yeast-displayed IgG, GFP MFI
# T8 construct: Prepared as in Luna V. et al. 2018; also called huCB1-GFP-SMALP; wtCB1-SMALP; not shown: GFP fusion
# T8 sequence (P21554 whole entry, the tested form may be a part): as the sequence (P21554 whole entry) above
# [15] = target: T3, human cannabinoid receptor type 2 (CB2); assay: binding to huCB2, fold over mock (method not described)
# mouse CB1 [16] = target: T4, mouse CB1; assay: binding to muCB1, fold over mock (method not described)
# [17] = target: T9, His-tagged huCB1-ND (human CB1 in nanodisc) (human); assay: flow cytometry, yeast-displayed IgG, binding/display ratio
# T9 construct: CB1 construct of Cell 167(3) (2016) 750-762 expressed in Sf9 cells; POPC:MSP1D1:CB1 480:8:1; also called CB1-nanodisc; huCB1-Nanodisc; not shown: histidine purification tag
# T9 sequence (P21554 99-414): as the sequence (P21554 99-414 limits assumed) above
# [18] = target: T9, His-tagged huCB1-ND (human CB1 in …); assay: flow cytometry, yeast-displayed IgG, huCB1-ND over empty-ND
# [19] = target: T9, His-tagged huCB1-ND (human CB1 in …); assay: flow cytometry on IgG-displaying yeast, 0.2 nM His-tagged huCB1 nanodisc, APC anti-His (y) vs PE anti-huFc display (x)
# [20] = target: T8, GFP-fused huCB1-SMALP (human CB1 in …); assay: flow cytometry on IgG-displaying yeast, 100 nM GFP-fused huCB1-SMALP, GFP in BB515-A (y) vs AlexaFluor647 anti-huFab display in APC-A (x)
Binder,"Mean IC50 (nM), cAMP antagonist assay [1] [nM]","Mean IC50, -fold vs Rimo [1] [fold vs Rimonabant]","n = 1 IC50 (nM), cAMP antagonist assay [1] [nM]","n = 1 IC50, -fold vs Rimo [1] [fold vs Rimonabant]","n = 2 IC50 (nM), cAMP antagonist assay [1] [nM]","n = 2 IC50, -fold vs Rimo [1] [fold vs Rimonabant]","Mean IC50 (nM, n = 3), cAMP antagonist assay [2] [nM]","IC50, nM (CP agonist) [3] [nM]",Kd (huCB1 nanodisc (CB1-ND)) [nM],koff (huCB1 nanodisc (CB1-ND)) [s⁻¹],kon (huCB1 nanodisc (CB1-ND)) [M⁻¹ s⁻¹],"Relative binding (KinExA, on cell; vs LIBC523661 mAb) [4] [ratio]","IC50, nM (TR-FRET cAMP assay, CP55,940 and Forskolin) [7] [nM]",MFI ratio (target- vs mock-transfected cells) [8] [ratio],MFI ratio (target- vs mock-transfected cells) [9] [ratio],MFI ratio (target- vs mock-transfected cells) [10] [ratio],MFI ratio (target- vs mock-transfected cells) [11] [ratio],"% of events in the upper right quadrant (display-positive, binding-positive) [19] [%]","% of events in the upper right quadrant (display-positive, binding-positive) [20] [%]",also measured
B1,2.87,0.96,4.41,1.05,1.34,0.75,3.71,3.7,15,0.000904,59000,1.5,–,–,–,–,–,–,–,–
B2,3.44,1.15,5.09,1.21,1.8,1,3.01,3,60,0.00339,56200,2.9,–,–,–,–,–,–,–,–
B3,–,–,–,–,–,–,–,–,–,–,–,–,–,–,–,–,–,–,–,binding result [5]: no binding; binding result (mouse CB1 [6]): no binding
B4,2.97,0.99,4.37,1.04,1.57,0.88,2.54,2.5,26,0.00136,51800,2.1,–,–,–,–,–,–,–,–
B5,–,–,–,–,–,–,–,–,–,–,–,–,6.4,422,495,1.1,1,–,–,–
B6,–,–,–,–,–,–,–,–,–,–,–,–,–,–,–,–,–,39.9,24.8,binding result [12]: no binding; binding result (mouse CB1 [13]): no binding; 100 nM huCB1-SMALP binding (normalized to 10D10) [14]: 5.51 fold; Fold over mock [15]: 1 fold; Fold over mock (mouse CB1 [16]): 0.8 fold; relative binding to 0.2 nM huCB1-ND (relative to 10D10N35Y) [17]: 5.01 fold; specific huCB1 binding (CB1 ND/Empty ND ratio) [18]: 9.5 ratio
B7,–,–,–,–,–,–,–,–,–,–,–,–,–,–,–,–,–,46.8,27.2,100 nM huCB1-SMALP binding (normalized to 10D10) [14]: 5.69 fold; relative binding to 0.2 nM huCB1-ND (relative to 10D10N35Y) [17]: 4.53 fold; specific huCB1 binding (CB1 ND/Empty ND ratio) [18]: 12.8 ratio
B8,–,–,–,–,–,–,–,–,–,–,–,–,–,–,–,–,–,0.431,1.48,binding result [12]: no binding; binding result (mouse CB1 [13]): no binding
B9,–,–,–,–,–,–,–,–,–,–,–,–,10.2,578,705,1,1,–,–,–
B10,–,–,–,–,–,–,–,–,–,–,–,–,7.5,440,444,1,1,–,–,–
